Consider one protein from publication PMC6205632 (Nature structural & molecular biology, 2017).

The series deals with the molecule itself. The experiment in a line: SEC.

B1: MDM2 RING homodimer (MDM2 428-C), tag removed (domain or fragment)
chain: SSLPLNAIEPCVICQGRPKNGCIVHGKTGHLMACFTCAKKLKKRNKPCPVCRQPIQMIVLTYFP
As for B1, the binding result is recorded as “binds”.
